Results as given in paper PMC6150531.

Target: ALG-2 (human (endogenous in HeLa)) (UniProt O75340)
Chain of UniProt O75340 (O75340 whole entry): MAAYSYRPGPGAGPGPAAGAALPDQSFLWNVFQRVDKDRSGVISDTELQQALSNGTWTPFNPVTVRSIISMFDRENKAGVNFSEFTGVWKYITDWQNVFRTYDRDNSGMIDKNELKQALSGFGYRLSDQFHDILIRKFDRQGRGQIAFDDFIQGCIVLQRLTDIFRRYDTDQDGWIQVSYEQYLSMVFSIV

For QGPPYPTYPGYPGYCQ [ALIX peptide], which viability of EGFP-expressing HeLa cells 1 hour after 50 uM digitonin in the presence of 10 uM peptide (about 60% without the peptide) is on record?
Its viability of EGFP-expressing HeLa cells 1 hour after 50 uM digitonin in the presence of 10 uM peptide (about 60% without the peptide) is 37 % viability.
